According to publication PMC3741208:

What was measured:
[1] = biological target: bovine α-thrombin (bovine)
[2] = biological target: bovine α-thrombin (bovine); assay: enzyme inhibition kinetics (chromogenic substrate); 1 nM bovine α-thrombin, 0-200 µM Tos-Gly-Pro-Arg-p-nitroanilide, 0-800 nM madanin; 37 °C, 50 mM Tris-HCl pH 8.0, 50 mM NaCl, 1 mg/ml bovine serum albumin; fitted to the competitive inhibition model

madanin-1 (mature, recombinant) (natural protein)
inhibition of thrombin amidolytic activity (%), 1 nM thrombin, 50 µM Tos-Gly-Pro-Arg-p-nitroanilide, 1 µM inhibitor, after 120 min [1]: 43.8% | Ki [2]: 55.6 nM

madanin-1 fragment 1-21 (peptide)
inhibition of thrombin amidolytic activity (%), 1 nM thrombin, 50 µM Tos-Gly-Pro-Arg-p-nitroanilide, 1 µM fragment, after 120 min [1]: 4.6% | prolongation (fold) of thrombin time of human plasma, 10 µM fragment (17 s against 17 s); competition with fibrinogen for thrombin; species of the assay's thrombin not stated (human α-thrombin (human)): 1 fold

madanin-1 fragment 22-54 (peptide)
inhibition of thrombin amidolytic activity (%), 1 nM thrombin, 50 µM Tos-Gly-Pro-Arg-p-nitroanilide, 1 µM fragment, after 120 min [1]: 5.77% | prolongation (fold) of thrombin time of human plasma, 10 µM fragment (20 s against 17 s); competition with fibrinogen for thrombin; species of the assay's thrombin not stated (human α-thrombin (human)): 1.18 fold

madanin-1 fragment 55-60 (peptide)
prolongation (fold) of thrombin time of human plasma, 10 µM fragment (17 s against 17 s); competition with fibrinogen for thrombin; species of the assay's thrombin not stated (human α-thrombin (human)): 1 fold

madanin-2 (mature, recombinant) (natural protein)
inhibition of thrombin amidolytic activity (%), 1 nM thrombin, 50 µM Tos-Gly-Pro-Arg-p-nitroanilide, 1 µM inhibitor, after 120 min [1]: 47.2% | Ki [2]: 31.6 nM

madanin-2 fragment 1-21 (peptide)
inhibition of thrombin amidolytic activity (%), 1 nM thrombin, 50 µM Tos-Gly-Pro-Arg-p-nitroanilide, 1 µM fragment, after 120 min [1]: 5.83% | prolongation (fold) of thrombin time of human plasma, 10 µM fragment (18 s against 17 s); competition with fibrinogen for thrombin; species of the assay's thrombin not stated (human α-thrombin (human)): 1.06 fold

madanin-2 fragment 22-55 (peptide)
inhibition of thrombin amidolytic activity (%), 1 nM thrombin, 50 µM Tos-Gly-Pro-Arg-p-nitroanilide, 1 µM fragment, after 120 min [1]: 6.11% | prolongation (fold) of thrombin time of human plasma, 10 µM fragment (18 s against 17 s); competition with fibrinogen for thrombin; species of the assay's thrombin not stated (human α-thrombin (human)): 1.06 fold

madanin-2 fragment 56-61 (peptide)
prolongation (fold) of thrombin time of human plasma, 10 µM fragment (17 s against 17 s); competition with fibrinogen for thrombin; species of the assay's thrombin not stated (human α-thrombin (human)): 1 fold
